Data taken from patent CN116813757A (INST MICROBIOLOGY CAS, dated 2023).

Target: SARS-CoV-2原始毒株的RBD蛋白 (SARS-CoV-2 RBD-his蛋白) (SARS-CoV-2 original strain, UniProt P0DTC2 319-541)

B1: 单链纳米抗体R14 (R14-his蛋白) (VHH)
VHH: QVQLQESGGGLVQPGGSLRLSCAVSGFTLDYYAIGWFRQAPGKEREGVSCISSSDGSTSYADSVKGRFTISRDNAKNTVYLQMNSLKPEDTALYYCAATPATYYSGRYYYQCPAGGMDYWGQGTQVTVSS
  Kd: < 0.1 nM
